Experimental data published in publication PMC8065039 (Communications Biology, 2021).

Experiments:
[1] = molecular target: SARS-CoV-2 Spike-Trimer protein (Shuimu BioSciences Ltd.) (SARS-CoV-2, Wuhan-Hu-1 assumed, UniProt P0DTC2); assay: BLI; conditions: both partners purified
[2] = molecular target: recombinant SARS-CoV-2 Spike S1 + S2 protein (40589-V08B1, Sino Biological) (SARS-CoV-2, Wuhan-1 (MN908947), UniProt P0DTC2); assay: ELISA; conditions: both partners purified
[3] = molecular target: recombinant SARS-CoV-2 Spike RBD (catalogue number not stated for this experiment) (SARS-CoV-2, UniProt P0DTC2); assay: ELISA; conditions: both partners purified
[4] = molecular target: extracellular domain of SARS-CoV-2 S protein (S-ECD), 1-1208 aa, with two proline substitutions, GSAS … (SARS-CoV-2, Wuhan-Hu-1, UniProt P0DTC2, proline substitution at residue 986 | proline substitution at residue 987 | …); assay: cryo-EM structure; conditions: both partners purified
[5] = molecular target: SARS-CoV-2 Spike protein on transfected CHO-K1 cells (GenScript RD00819) (SARS-CoV-2, UniProt P0DTC2); assay: cell-based or functional assay

B1: CA521^FALA (human IgG4 monoclonal antibody with the F234A/L235A mutation) (antibody, V domains shown)
VH: EVQLQQWGAGLLKPSETLSLTCAVYGGSFSGYYWSWIRQPPGKGLEWIGEVNHSGSTNYNPSLKSRVTISVDTSKNQLSLKLNSVTAADTAVYYCARGNTMVRGVIIPFEYWDKGTLVTVSS
VL: EIVLTQSPATLSLSPGERATLSCRASQSVSSYLAWYQQKPGQAPRLLIYDASNRATGIPARFSGSGSGTDFTLTISSLEPEDFAVYYCQQRSNWPLTFGGGTKVEIK
notes: also called CA521^FALA IgG; full-length CA521^FALA IgG; source: Expi-CHO Expression system, purified (protein A, Q FF, Capto S ImpAct)
Kd [1]: < 0.001 nM
EC50 [2]: 0.014 nM
IC50 [3]: 0.343 nM
binding result [4]: binds
IC50 of inhibition of SARS-CoV-2 pseudovirus transduction into Huh-7 cells [5]: 0.121 nM
